From patent US20030114402A1, “Modulators of DNA cytosine-5 methyltransferase and methods for use thereof” (The Regents of the University of California, priority 1997, published 2003)

Key:
[1] = Jones, 1996; cited from earlier work
[2] = Jones, 1996; cited from earlier work; remark: listed apart in the source
[3] = biological target: T1, DCMTase (Mus musculus, UniProt P13864); experiment: Steady-state kinetic assay: initial velocity, substrate inhibition, DNA length; type: biochemical; details: concentrations up to 30 times Km^AdoMet
T1 construct: DCMTase was purified from mouse erythroleukemia cells as previously described; endogenous in cells; host or cells: mouse erythroleukemia (MEL) cells; enzyme purified from them
T1 sequence (P13864 whole entry): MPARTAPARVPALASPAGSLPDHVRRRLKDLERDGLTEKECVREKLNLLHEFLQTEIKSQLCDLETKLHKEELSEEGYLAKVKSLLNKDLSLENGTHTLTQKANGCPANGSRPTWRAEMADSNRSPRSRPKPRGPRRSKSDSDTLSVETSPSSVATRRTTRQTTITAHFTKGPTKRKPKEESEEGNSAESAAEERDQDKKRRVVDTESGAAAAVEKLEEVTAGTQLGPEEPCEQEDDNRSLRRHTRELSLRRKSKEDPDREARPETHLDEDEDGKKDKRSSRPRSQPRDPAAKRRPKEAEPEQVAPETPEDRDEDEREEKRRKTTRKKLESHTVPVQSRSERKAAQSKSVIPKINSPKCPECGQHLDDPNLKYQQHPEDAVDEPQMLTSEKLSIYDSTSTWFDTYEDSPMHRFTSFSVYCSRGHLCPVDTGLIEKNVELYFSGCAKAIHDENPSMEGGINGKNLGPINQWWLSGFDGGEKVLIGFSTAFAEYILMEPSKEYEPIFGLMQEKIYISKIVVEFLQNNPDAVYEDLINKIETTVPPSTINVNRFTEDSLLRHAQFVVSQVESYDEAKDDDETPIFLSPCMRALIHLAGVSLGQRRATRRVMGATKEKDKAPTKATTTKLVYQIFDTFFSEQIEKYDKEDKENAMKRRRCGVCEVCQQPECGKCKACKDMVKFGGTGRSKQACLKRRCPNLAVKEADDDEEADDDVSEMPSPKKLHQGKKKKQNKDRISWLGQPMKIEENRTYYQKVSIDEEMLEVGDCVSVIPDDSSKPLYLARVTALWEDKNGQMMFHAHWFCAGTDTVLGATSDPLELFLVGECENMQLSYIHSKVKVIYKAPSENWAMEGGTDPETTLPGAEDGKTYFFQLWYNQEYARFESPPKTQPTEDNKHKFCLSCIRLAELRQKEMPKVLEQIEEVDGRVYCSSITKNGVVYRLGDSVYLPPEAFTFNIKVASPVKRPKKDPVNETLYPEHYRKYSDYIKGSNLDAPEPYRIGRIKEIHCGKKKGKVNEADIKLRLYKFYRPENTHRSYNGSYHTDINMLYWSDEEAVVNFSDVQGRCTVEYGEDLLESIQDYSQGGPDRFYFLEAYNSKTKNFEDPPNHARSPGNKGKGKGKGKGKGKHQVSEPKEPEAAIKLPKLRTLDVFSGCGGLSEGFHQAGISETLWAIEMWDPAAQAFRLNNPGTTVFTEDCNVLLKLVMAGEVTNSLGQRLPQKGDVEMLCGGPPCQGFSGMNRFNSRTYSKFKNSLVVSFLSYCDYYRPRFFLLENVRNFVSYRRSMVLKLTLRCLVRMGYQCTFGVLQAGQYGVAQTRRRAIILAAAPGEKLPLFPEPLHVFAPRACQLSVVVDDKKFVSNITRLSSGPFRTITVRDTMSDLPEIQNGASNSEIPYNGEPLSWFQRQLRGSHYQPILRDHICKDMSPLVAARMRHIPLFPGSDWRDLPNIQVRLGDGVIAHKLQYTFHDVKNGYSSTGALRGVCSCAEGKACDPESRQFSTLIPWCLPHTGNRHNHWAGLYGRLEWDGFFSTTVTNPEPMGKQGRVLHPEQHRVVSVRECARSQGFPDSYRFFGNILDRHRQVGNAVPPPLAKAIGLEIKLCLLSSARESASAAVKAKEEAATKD
Method: After preincubation at room temperature for up to 10 minutes, reactions were initiated by the addition of poly(dI.dC:dI.dC) and, if indicated, inhibitor DNA or reaction products. […] Single-stranded DNA was heated to 90° C. and quick cooled on ice, prior to initiation of the reaction. Freeze-thawed DNA produced equivalent results. Incubations were at 37° C. for 60 minutes. The poly(dI.dC:dI.dC) concentrations were 2.0, 4.0, 8.0, 16, 35, 80, 160, 250, 400, 700 and 1000 pM. In some experiments, GC-box a/b was the substrate, using 100 nM DCMTase and DNA concentrations of 0.20, 0.40, 1.0, 2.0, 4.0, 8.0, 15, 23 and 35 μM. […] The radioactivity above the background, determined from assays without added poly(dI.dC:dI.dC), was converted to initial velocities and expressed as picomoles of methyl groups transferred to poly(dI.dC:dI.dC) per hour and plotted in double reciprocal form. […]
The Michaelis-Menton equation was used for studies into DNA length contributions to catalysis using KaliedaGraph 2.1.2 (Synergy Software). […] All steady-state data were analyzed using regression analyses of the appropriate initial velocity equation, listed below, using the Cleland programs (Cleland, W. W., 1979, Statistical analysis of enzyme kinetic data. Methods in Enzymol. 63:103-138). […]

[4] = biological target: T2, DNA cytosine-5 methyltransferase (DCMTase, Dnmt1) (Mus musculus, UniProt P13864 P13864:1-1620); experiment: inhibition; Kii, uncompetitive with poly(dIdC:dIdC); 25 +/- 10 nM competitive with AdoMet; calculated KI 2.5 nM for DCMTase:poly(dIdC:dIdC) complex; Tris pH 8.0, 10 mM EDTA; details: tags: none; purified from mouse erythroleukemia (MEL) cells
T2 sequence (P13864 whole entry, one chain of several): as the sequence (P13864 whole entry) above

[5] = biological target: T2, DNA cytosine-5 methyltransferase …; experiment: EMSA; unit printed as mM (text indicates micromolar); free enzyme; details: tags: none; purified from mouse erythroleukemia (MEL) cells
Method: (§1) Gel mobility shift assays (GMSA) were performed with minor revisions to the original procedures (Fried, M., & Crothers, D. M., 1981, Equilibria and kinetics of the lac repressor-operator interactions by polyacrylamide gel electrophoresis, Nucleic Acids Res. 9:6505-6525; Garner, M. M. & Revzin, A., 1981, A gel electrophoresis method for quantifying the binding proteins to specific DNA regions: applications to components of the Escherichia coli lactose operon regulatory system, Nucleic Acids Res. 13:3047-3060). […]
(§2) Steady-state kinetic analyses of the DCMTase with the same 30 base-pair DNA substrates used in these studies indicate that Kₘ^DNA is 1000- to 50,000-fold higher (Flynn, J., et al., 1996, Murine DNA cytosine-C5 methyltransferase: Pre-steady- and steady-state kinetic analyses with regulatory DNA sequences, Biochemistry 35:7308-7315) than the DNA concentrations used to generate FIG. 2 and used by Reale et al, 1995, supra. […] Therefore, the stability of protein:DNA was determined by keeping the enzyme at a constant concentration (100 nM) and varying the amount of added DNA (Dubey & Roberts, 1992, supra).

[6] = biological target: T2, DNA cytosine-5 methyltransferase …; experiment: EMSA; unit printed as mM (text indicates micromolar); details: tags: none; purified from mouse erythroleukemia (MEL) cells
Method: Gel mobility shift assays (GMSA) were performed with minor revisions to the original procedures (Fried, M., & Crothers, D. M., 1981, Equilibria and kinetics of the lac repressor-operator interactions by polyacrylamide gel electrophoresis, Nucleic Acids Res. 9:6505-6525; Garner, M. M. & Revzin, A., 1981, A gel electrophoresis method for quantifying the binding proteins to specific DNA regions: applications to components of the Escherichia coli lactose operon regulatory system, Nucleic Acids Res. 13:3047-3060). All reactions were done in 100 mM Hepes pH 7.4, 10 mM EDTA, 10 mM DTT, […], 5% glycerol using the indicated P-labeled DNA and DCMTase concentrations, incubated on ice for 5 minutes and loaded on a 1×TBE(89 mM Tris-HCl pH 8.3, 89 mM boric acid, 2 mM EDTA), 6% polyacrylamide gel. Electrophoresis was done at 250 V, 9 mA for 2 hours at 4° C. and the dried gel was exposed to film overnight. The reaction conditions for buffer, temperature, incubation time, cofactor addition and gel composition have all been optimized. Only slightly better complex resolution was obtained under the listed conditions compared to a 10 minute incubation at 37° C. prior to gel loading at room temperature and containing either cofactor S-adenosyl-L-methionine, product S-adenosyl-L-homocysteine, or the AdoMet analog sinefungin. Hepes reaction buffer at pH 7.4 produced sharper banding than Tris-HCl at pH 8.0. […] Subsequent assays used a limiting and constant enzyme concentration with varying DNA concentrations.
as §2

[7] = biological target: T2, DNA cytosine-5 methyltransferase …; experiment: inhibition; Kis, noncompetitive with poly(dIdC:dIdC); Kii 6800 +/- 1200 nM; Tris pH 8.0, 37 C; details: tags: none; purified from mouse erythroleukemia (MEL) cells
Method: For these reasons it was presumed that single-stranded GC-box substrates could act as dead-end inhibitors of the reaction with poly(dI.dC:dI.dC). Dead-end inhibitors can provide a strong methodology for assessing whether a kinetic mechanism is random or ordered. Inhibition of poly(dI.dC:dI.dC) methylation by single-stranded GC-box b was studied at 15 μM AdoMet. The data were best fit by equation 5, a standard equation for noncompetitive inhibition, and generated the intersecting double reciprocal pattern shown in FIG. 13. The inhibition constants were determined to be Kᵢₛ=3.6+/−1.5 μM and Kᵢᵢ=6.8+/−1.2 μM (Table 4). Kᵢᵢ is the inhibition constant associated with an intercept effect and Kᵢₛ is the inhibition constant associated with a slope effect from families of double reciprocal plots.

[8] = biological target: T2, DNA cytosine-5 methyltransferase …; experiment: inhibition; substrate inhibition; KmDNA 0.31 +/- 0.13 µM; details: tags: none; purified from mouse erythroleukemia (MEL) cells; label: 32P (gel shift)
Method: To distinguish between this and alternative explanations, a short 30 base-pair DNA substrate was tested for inhibition at high concentrations. […] Initial velocity data for both substrates were fit to equation 1, which is a standard equation for analyzing substrate inhibition. Kₘ^DNA was determined to be 5.5+/−0.9 pM and 0.31+/−0.13 μM, and Kᵢ^DNA was 1010+/−170 pM and 43+/−22 μM for poly(dI.dC:dI.dC) and GC-box a/b, respectively (Table 3). In both cases, DNA concentrations greater than 20 times Kₘ^DNA caused substrate inhibition. AdoMet utilization was calculated to be less than 0.5%. Product inhibition by S-adenosyl homocysteine formation is therefore unlikely. AdoMet substrate inhibition was not observed at concentrations up to 30 times Kₘ^AdoMet. The substrate inhibition observed implicates a second DNA molecule binding to the enzyme and inhibiting catalysis.

[9] = biological target: T2, DNA cytosine-5 methyltransferase …; experiment: EMSA; unit printed as mM (text indicates micromolar); Hepes pH 7.4, 10 mM EDTA, on ice; details: tags: none; purified from mouse erythroleukemia (MEL) cells; label: 32P (gel shift)
Method: as §1, §2

Nc1ncn([C@H]2C[C@H](O)[C@@H](CO)O2)c(=O)n1 [5-Aza-deoxycytidine, 5-aza-2′-deoxycytidine]
stability in solution [1]: unstable in solution
carcinogenicity and mutagenicity [2]: may be carcinogenic as well as mutagenic

C[S+](CC[C@H](N)C(=O)[O-])C[C@H]1O[C@@H](n2cnc3c(N)ncnc32)[C@H](O)[C@@H]1O (stereo partly drawn) [AdoMet, S-adenosyl-L-methionine]
AdoMet substrate inhibition [3]: not observed

CTGGATCCTTGCCCCGCCCCTTGAATTCCC (ssDNA, 5mC at position 15 (central CpG)) [GC-box bMET]
Ki [4]: 20 nM
Kd [5]: 880 nM

CTGGATCCTTGCCCCGCCCCTTGAATTCCC (ssDNA) [GC-box b]
Kd [6]: 1300 nM
Ki [7]: 3600 nM

B1: GC-box a/b (dsDNA)
DNA 1: GGGAATTCAAGGGGCGGGGCAAGGATCCAG
DNA 2: CTGGATCCTTGCCCCGCCCCTTGAATTCCC
Ki [8]: 43000 nM
Kd [9]: 420 nM
